# Laboratory results taken from doi:10.1101/2025.08.03.668247, “The structure of Egalitarian in complex with the K10 mRNA localization signal reveals a modular binding surface required for function”.
# Tests used:
# Test in all cases: fluorescence anisotropy; FA: 20 mM HEPES-NaOH pH 7.5, 100 mM NaCl, 10% glycerol, 20 C, 10 nM FAM-RNA; competition: 150 nM Egl512-819 + 10 nM FAM-K10 TLS, same buffer
# Settings in all cases: protein: recombinant; tags: N-terminal GST; label: 5'-6-FAM; hairpin with two bulges
# [1] = target: T1, K751E (Drosophila melanogaster, UniProt Q9W1K4 512-819, K751E)
# T1 sequence: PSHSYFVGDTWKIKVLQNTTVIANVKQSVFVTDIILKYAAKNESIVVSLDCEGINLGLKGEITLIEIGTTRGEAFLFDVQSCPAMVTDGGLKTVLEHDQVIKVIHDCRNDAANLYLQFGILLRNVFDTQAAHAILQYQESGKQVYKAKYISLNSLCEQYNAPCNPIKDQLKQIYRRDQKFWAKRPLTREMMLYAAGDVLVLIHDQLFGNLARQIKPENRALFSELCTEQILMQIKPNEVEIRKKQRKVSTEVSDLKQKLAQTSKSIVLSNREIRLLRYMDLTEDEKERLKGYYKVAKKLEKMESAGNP
# [2] = target: T2, R788E (Drosophila melanogaster, UniProt Q9W1K4 512-819, R788E)
# T2 sequence: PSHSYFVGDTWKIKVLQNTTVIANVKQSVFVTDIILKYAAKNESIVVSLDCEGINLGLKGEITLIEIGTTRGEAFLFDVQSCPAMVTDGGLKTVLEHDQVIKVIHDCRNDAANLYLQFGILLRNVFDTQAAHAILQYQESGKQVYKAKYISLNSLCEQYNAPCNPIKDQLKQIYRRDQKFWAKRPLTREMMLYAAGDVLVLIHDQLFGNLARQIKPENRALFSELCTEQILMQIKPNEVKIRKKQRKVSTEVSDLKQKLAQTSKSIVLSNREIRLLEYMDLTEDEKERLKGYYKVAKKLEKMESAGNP
# [3] = target: T3, Egl512-931 (Drosophila melanogaster, UniProt Q9W1K4 512-931)
# T3 sequence: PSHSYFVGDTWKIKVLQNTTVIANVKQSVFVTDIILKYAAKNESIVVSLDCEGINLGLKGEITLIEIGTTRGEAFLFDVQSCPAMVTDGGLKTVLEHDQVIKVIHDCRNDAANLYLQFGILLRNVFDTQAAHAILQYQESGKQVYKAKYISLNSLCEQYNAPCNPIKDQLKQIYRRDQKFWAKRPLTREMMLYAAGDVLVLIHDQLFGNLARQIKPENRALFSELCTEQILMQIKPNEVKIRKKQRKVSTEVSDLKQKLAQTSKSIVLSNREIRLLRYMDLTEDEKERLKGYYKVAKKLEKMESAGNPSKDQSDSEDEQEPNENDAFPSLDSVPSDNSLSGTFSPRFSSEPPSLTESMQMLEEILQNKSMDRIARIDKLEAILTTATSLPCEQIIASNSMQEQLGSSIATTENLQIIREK
# [4] = target: T4, Y685A (Drosophila melanogaster, UniProt Q9W1K4 512-819, Y685A)
# T4 sequence: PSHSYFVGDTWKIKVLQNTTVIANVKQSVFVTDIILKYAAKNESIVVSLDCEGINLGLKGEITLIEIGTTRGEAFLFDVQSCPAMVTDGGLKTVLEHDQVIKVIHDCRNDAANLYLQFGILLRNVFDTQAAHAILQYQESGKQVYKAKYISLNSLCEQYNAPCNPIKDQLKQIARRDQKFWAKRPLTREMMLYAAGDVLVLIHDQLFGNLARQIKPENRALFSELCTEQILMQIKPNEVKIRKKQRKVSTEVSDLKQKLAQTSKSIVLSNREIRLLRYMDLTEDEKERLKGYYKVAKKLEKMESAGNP
# [5] = target: T5, K659E (Drosophila melanogaster, UniProt Q9W1K4 512-819, K659E)
# T5 sequence: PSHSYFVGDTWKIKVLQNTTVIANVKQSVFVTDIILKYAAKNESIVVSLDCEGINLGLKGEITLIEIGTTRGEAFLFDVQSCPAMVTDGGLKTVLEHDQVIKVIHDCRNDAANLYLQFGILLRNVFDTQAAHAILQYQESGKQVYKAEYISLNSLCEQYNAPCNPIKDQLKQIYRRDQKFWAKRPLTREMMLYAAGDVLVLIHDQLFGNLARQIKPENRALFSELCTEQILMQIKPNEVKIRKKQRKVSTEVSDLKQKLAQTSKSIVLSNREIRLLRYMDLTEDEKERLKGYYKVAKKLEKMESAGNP
# [6] = target: T6, R753A/K754A/K755A (Drosophila melanogaster, UniProt Q9W1K4 512-819, R753A;K754A;K755A)
# T6 sequence: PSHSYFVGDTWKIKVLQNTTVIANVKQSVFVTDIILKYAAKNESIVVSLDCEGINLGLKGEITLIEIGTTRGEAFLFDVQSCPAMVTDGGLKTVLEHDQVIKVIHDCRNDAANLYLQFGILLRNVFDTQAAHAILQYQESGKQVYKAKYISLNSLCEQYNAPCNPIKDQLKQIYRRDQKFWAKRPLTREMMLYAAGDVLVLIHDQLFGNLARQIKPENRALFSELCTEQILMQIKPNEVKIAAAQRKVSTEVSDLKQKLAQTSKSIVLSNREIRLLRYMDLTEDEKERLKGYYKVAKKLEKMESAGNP
binder,measurement,setting,value
CUUGAUUGUAUUUUUAAAUUAAUUCUUAAAAACUACAAAUUAAG (structured_RNA) [K10 TLS (FAM)],Kd,[1],139 ± 28 nM
same,Kd,[2],313 ± 23 nM
same,Kd,[3],164 ± 7 nM
same,Kd,[4],221 ± 11 nM
same,Kd,[5],418 ± 40 nM
same,Kd,[6],222 ± 19 nM
